± gives the uncertainty stated by the source.
B1: Protein maelstrom homolog, residues 3 to 71; numbered along this chain, Q96JY0 (parent)
chain: NRKASRNAYYFFVQEKIPELRRRGLPVARVADAIPYCSSDWALLREEEKEKYAEMAREWRAAQGKDPGP

Variants of: B1
Assay: abundance fitness (aPCA) (normalised: wild type 0, dead -1); higher = more abundant; growth selection in yeast, the domain comes from the species named
Conditions: Homo sapiens

Question: With NRKASRNAYYFFVQEKIPELRRRGLPVAGVADAIPYCSSDWALLREEEKEKYAEMAREWRAAQGKDPGP [R29G] as the variant, how does the abundance fitness read?
Answer: The abundance fitness was 0.052 ± 0.05.

Question: For NRKASRNAYYFFVQEKIPELRRRGLPVAQVADAIPYCSSDWALLREEEKEKYAEMAREWRAAQGKDPGP [R29Q], which abundance fitness is on record?
Answer: Its abundance fitness is 0.041 ± 0.075.

Question: Which abundance fitness does the source give for NRKASRNAYYFFVQEKIPELRRRGLPVAEVADAIPYCSSDWALLREEEKEKYAEMAREWRAAQGKDPGP [R29E] here?
Answer: Its abundance fitness is 0.275 ± 0.065.

Question: With NRKASRNAYYFFVQEKIPELRRRGLPVAVVADAIPYCSSDWALLREEEKEKYAEMAREWRAAQGKDPGP [R29V] as the variant, how does the abundance fitness read?
Answer: Its abundance fitness is 0.049 ± 0.062.

Question: For NRKASRNAYYFFVQEKIPELRRRGLPVAYVADAIPYCSSDWALLREEEKEKYAEMAREWRAAQGKDPGP [R29Y], which abundance fitness is on record?
Answer: The abundance fitness was -0.101 ± 0.15.

Question: With NRKASRNAYYFFVQEKIPELRRRGLPVANVADAIPYCSSDWALLREEEKEKYAEMAREWRAAQGKDPGP [R29N] as the variant, how does the abundance fitness read?
Answer: Its abundance fitness is 0.105 ± 0.11.

Question: Which abundance fitness does the source give for NRKASRNAYYFFVQEKIPELRRRGLPVASVADAIPYCSSDWALLREEEKEKYAEMAREWRAAQGKDPGP [R29S] here?
Answer: Its abundance fitness is 0.221 ± 0.14.

Question: Which abundance fitness does the source give for NRKASRNAYYFFVQEKIPELRRRGLPVAKVADAIPYCSSDWALLREEEKEKYAEMAREWRAAQGKDPGP [R29K] here?
Answer: Its abundance fitness is 0.178 ± 0.064.

Question: Which abundance fitness does the source give for NRKASRNAYYFFVQEKIPELRRRGLPVACVADAIPYCSSDWALLREEEKEKYAEMAREWRAAQGKDPGP [R29C] here?
Answer: Its abundance fitness is 0.118 ± 0.1.

Question: For NRKASRNAYYFFVQEKIPELRRRGLPVALVADAIPYCSSDWALLREEEKEKYAEMAREWRAAQGKDPGP [R29L], which abundance fitness is on record?
Answer: The abundance fitness was -0.032 ± 0.056.

Question: With NRKASRNAYYFFVQEKIPELRRRGLPVAHVADAIPYCSSDWALLREEEKEKYAEMAREWRAAQGKDPGP [R29H] as the variant, how does the abundance fitness read?
Answer: Its abundance fitness is -0.113 ± 0.13.

Question: With NRKASRNAYYFFVQEKIPELRRRGLPVADVADAIPYCSSDWALLREEEKEKYAEMAREWRAAQGKDPGP [R29D] as the variant, how does the abundance fitness read?
Answer: The abundance fitness was 0.148 ± 0.15.

Question: With NRKASRNAYYFFVQEKIPELRRRGLPVAMVADAIPYCSSDWALLREEEKEKYAEMAREWRAAQGKDPGP [R29M] as the variant, how does the abundance fitness read?
Answer: The abundance fitness was -0.09 ± 0.09.

Question: Which abundance fitness does the source give for NRKASRNAYYFFVQEKIPELRRRGLPVAPVADAIPYCSSDWALLREEEKEKYAEMAREWRAAQGKDPGP [R29P] here?
Answer: Its abundance fitness is -1.09 ± 0.17.

Question: For NRKASRNAYYFFVQEKIPELRRRGLPVAFVADAIPYCSSDWALLREEEKEKYAEMAREWRAAQGKDPGP [R29F], which abundance fitness is on record?
Answer: The abundance fitness was -0.478 ± 0.26.

Question: For NRKASRNAYYFFVQEKIPELRRRGLPVAIVADAIPYCSSDWALLREEEKEKYAEMAREWRAAQGKDPGP [R29I], which abundance fitness is on record?
Answer: Its abundance fitness is 0.139 ± 0.14.

Question: With NRKASRNAYYFFVQEKIPELRRRGLPVAWVADAIPYCSSDWALLREEEKEKYAEMAREWRAAQGKDPGP [R29W] as the variant, how does the abundance fitness read?
Answer: The abundance fitness was -0.47 ± 0.086.

Question: With NRKASRNAYYFFVQEKIPELRRRSLPVARVADAIPYCSSDWALLREEEKEKYAEMAREWRAAQGKDPGP [G24S] as the variant, how does the abundance fitness read?
Answer: The abundance fitness was -0.773 ± 0.25.

Question: Which abundance fitness does the source give for NRKASRNAYYFFVQEKIPELRRRGLPVSRVADAIPYCSSDWALLREEEKEKYAEMAREWRAAQGKDPGP [A28S] here?
Answer: Its abundance fitness is -0.324 ± 0.31.

Question: For NRKASRNAYYFFVQEKIPELRRRGLPVMRVADAIPYCSSDWALLREEEKEKYAEMAREWRAAQGKDPGP [A28M], which abundance fitness is on record?
Answer: Its abundance fitness is -0.319 ± 0.21.

Question: With NRKASRNAYYFFVQEKIPELRRRGFPVARVADAIPYCSSDWALLREEEKEKYAEMAREWRAAQGKDPGP [L25F] as the variant, how does the abundance fitness read?
Answer: The abundance fitness was -0.229 ± 0.35.

Question: Which abundance fitness does the source give for NRKASRNAYYFFVQEKIPELRRRGLPVARVAKAIPYCSSDWALLREEEKEKYAEMAREWRAAQGKDPGP [D32K] here?
Answer: Its abundance fitness is -0.869 ± 0.24.

Question: With NRKASRNAYYFFVQEKIPELRRRGLPVARVAEAIPYCSSDWALLREEEKEKYAEMAREWRAAQGKDPGP [D32E] as the variant, how does the abundance fitness read?
Answer: Its abundance fitness is -0.055 ± 0.099.

Question: For NRKASRNAYYFFVQEKIPELRRRGLPVARVAAAIPYCSSDWALLREEEKEKYAEMAREWRAAQGKDPGP [D32A], which abundance fitness is on record?
Answer: The abundance fitness was -0.421 ± 0.076.

Question: Which abundance fitness does the source give for NRKASRNAYYFFVQEKIPELRRRGLPVARVAFAIPYCSSDWALLREEEKEKYAEMAREWRAAQGKDPGP [D32F] here?
Answer: Its abundance fitness is -0.956 ± 0.28.

Question: For NRKASRNAYYFFVQEKIPELRRRGLPVARVAPAIPYCSSDWALLREEEKEKYAEMAREWRAAQGKDPGP [D32P], which abundance fitness is on record?
Answer: The abundance fitness was -0.959 ± 0.23.

Question: For NRKASRNAYYFFVQEKIPELRRRGLPVARVALAIPYCSSDWALLREEEKEKYAEMAREWRAAQGKDPGP [D32L], which abundance fitness is on record?
Answer: The abundance fitness was -1.05 ± 0.13.

Question: With NRKASRNAYYFFVQEKIPELRRRGLPVARVAMAIPYCSSDWALLREEEKEKYAEMAREWRAAQGKDPGP [D32M] as the variant, how does the abundance fitness read?
Answer: Its abundance fitness is -0.835 ± 0.17.

Question: For NRKASRNAYYFFVQEKIPELRRRGLPVARVAHAIPYCSSDWALLREEEKEKYAEMAREWRAAQGKDPGP [D32H], which abundance fitness is on record?
Answer: Its abundance fitness is -0.535 ± 0.37.

Question: Which abundance fitness does the source give for NRKASRNAYYFFVQEKIPELRRRGLPVARVACAIPYCSSDWALLREEEKEKYAEMAREWRAAQGKDPGP [D32C] here?
Answer: Its abundance fitness is -0.735 ± 0.27.

Question: Which abundance fitness does the source give for NRKASRNAYYFFVQEKIPELRRRGLPVARVAGAIPYCSSDWALLREEEKEKYAEMAREWRAAQGKDPGP [D32G] here?
Answer: The abundance fitness was -0.794 ± 0.084.

Question: Which abundance fitness does the source give for NRKASRNAYYFFVQEKIPELRRRGLPNARVADAIPYCSSDWALLREEEKEKYAEMAREWRAAQGKDPGP [V27N] here?
Answer: Its abundance fitness is -0.02 ± 0.21.

Question: Which abundance fitness does the source give for NRKASRNAYYFFVQEKIPELRRRGLPIARVADAIPYCSSDWALLREEEKEKYAEMAREWRAAQGKDPGP [V27I] here?
Answer: The abundance fitness was -0.319 ± 0.16.

Question: With NRKASRNAYYFFVQEKIPELRRRGLPSARVADAIPYCSSDWALLREEEKEKYAEMAREWRAAQGKDPGP [V27S] as the variant, how does the abundance fitness read?
Answer: The abundance fitness was -0.104 ± 0.087.

Question: With NRKASRNAYYFFVQEKIPELRRRGLPRARVADAIPYCSSDWALLREEEKEKYAEMAREWRAAQGKDPGP [V27R] as the variant, how does the abundance fitness read?
Answer: Its abundance fitness is -0.742 ± 0.077.

Question: Which abundance fitness does the source give for NRKASRNAYYFFVQEKIPELRRRGLPEARVADAIPYCSSDWALLREEEKEKYAEMAREWRAAQGKDPGP [V27E] here?
Answer: The abundance fitness was -0.831 ± 0.15.

Question: With NRKASRNAYYFFVQEKIPELRRRGLPDARVADAIPYCSSDWALLREEEKEKYAEMAREWRAAQGKDPGP [V27D] as the variant, how does the abundance fitness read?
Answer: The abundance fitness was -0.738 ± 0.45.

Question: Which abundance fitness does the source give for NRKASRNAYYFFVQEKIPELRRRGLPPARVADAIPYCSSDWALLREEEKEKYAEMAREWRAAQGKDPGP [V27P] here?
Answer: Its abundance fitness is -0.73 ± 0.18.

Question: Which abundance fitness does the source give for NRKASRNAYYFFVQEKIPELRRRGLPKARVADAIPYCSSDWALLREEEKEKYAEMAREWRAAQGKDPGP [V27K] here?
Answer: The abundance fitness was -0.744 ± 0.17.
